Columns and labels:
Experiment in all cases: cell-based or functional assay
[1] = biological target: Kv2.1 K+ channel P406D mutant (rat) (UniProt P15387)
[2] = biological target: Shaker H4 K+ channel, N-terminal deletion 6-46, P475H mutant (Drosophila) (UniProt P08510)
[3] = biological target: Shaker H4 K+ channel, N-terminal deletion 6-46, P475E mutant (Drosophila) (UniProt P08510)
[4] = biological target: Shaker H4 K+ channel, N-terminal deletion 6-46, P475D mutant (Drosophila) (UniProt P08510)
Shaker H4 K+ channel, N-terminal deletion 6-46, P475D mutant (Drosophila), sequence (P08510 whole entry P475D): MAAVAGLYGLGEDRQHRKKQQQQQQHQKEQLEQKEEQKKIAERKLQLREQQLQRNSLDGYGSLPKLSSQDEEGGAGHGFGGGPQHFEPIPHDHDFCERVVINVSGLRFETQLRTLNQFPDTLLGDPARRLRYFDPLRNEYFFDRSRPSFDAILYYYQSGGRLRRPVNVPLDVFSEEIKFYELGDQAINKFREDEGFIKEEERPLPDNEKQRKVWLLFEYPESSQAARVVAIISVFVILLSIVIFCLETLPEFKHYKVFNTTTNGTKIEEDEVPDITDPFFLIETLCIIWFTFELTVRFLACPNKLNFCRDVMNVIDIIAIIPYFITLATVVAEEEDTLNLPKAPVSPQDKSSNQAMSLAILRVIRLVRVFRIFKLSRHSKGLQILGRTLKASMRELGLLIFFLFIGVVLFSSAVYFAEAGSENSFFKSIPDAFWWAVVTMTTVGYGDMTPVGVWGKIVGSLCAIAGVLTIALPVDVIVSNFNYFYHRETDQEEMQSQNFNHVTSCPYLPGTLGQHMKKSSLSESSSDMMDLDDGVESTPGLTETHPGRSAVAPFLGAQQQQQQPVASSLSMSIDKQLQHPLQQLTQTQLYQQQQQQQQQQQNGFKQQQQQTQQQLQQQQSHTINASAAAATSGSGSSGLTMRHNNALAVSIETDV

[5] = biological target: Shaker H4 K+ channel, N-terminal deletion 6-46, P475K mutant (Drosophila) (UniProt P08510)
Shaker H4 K+ channel, N-terminal deletion 6-46, P475K mutant (Drosophila), sequence (P08510 whole entry P475K): as the sequence (P08510 whole entry P475D) above, with D475K counted along it

Measured: block of channel current (two-electrode voltage clamp, Xenopus oocytes); concentration called saturating

Shaker H4 K+ channel, N-terminal deletion 6-46, P475E mutant (Drosophila), sequence (P08510 whole entry P475E): as the sequence (P08510 whole entry P475D) above, with D475E counted along it
Shaker H4 K+ channel, N-terminal deletion 6-46, P475H mutant (Drosophila), sequence (P08510 whole entry P475H): as the sequence (P08510 whole entry P475D) above, with D475H counted along it

agitoxin2 (from UniProt P46111 1-38) (peptide)
1 µM: all assays above

— patent US20030211575A1
